Source: US7935785B2, “Selective substrates for matrix metalloproteinases” (Sanford-Burnham Medical Research Institute, priority 2001, dated 2011)

B1: Eph B2 fusion protein: extracellular domain of mouse EphB2 (residues 1-548) fused to Fc region of human IgG, R&D Systems (protein)
chain: VEETLMDSTTATAELGWMVHPPSGWEEVSGYDENMNTIRTYQVCNVFESSQNNWLRTKFIRRRGAHRIHVEMKFSVRDCSSIPSVPGSCKETFNLYYYEADFDLATKTFPNWMENPWVKVDTIAADESFSQVDLGGRVMKINTEVRSFGPVSRNGFYLAFQDYGGCMSLIAVRVFYRKCPRIIQNGAIFQETLSGAESTSLVAARGSCIANAEEVDVPIKLYCNGDGEWLVPIGRCMCKAGFEAVENGTVCRGCPSGTFKANQGDEACTHCPINSRTTSEGATNCVCRNGYYRADLDPLDMPCTTIPSAPQAVISSVNETSLMLEWTPPRDSGGREDLVYNIICKSCGSGRGACTRCGDNVQYAPRQLGLTEPRIYISDLLAHTQYTFEIQAVNGVTDQSPFSPQFASVNITTNQAAPSAVSIMHQVSRTVDSITLSWSQPDQPNGVILDYELQYYEKELSEYNATAIKSPTNTVTVQGLKAGAIYVFQVRARTVAGYGRYSGKMYFQTMTEAEYQTSIKEKLPLIVGSS
modifications: left off: small tags and cut ends; a dimerising Fc or GST
notes: extracellular domain of mouse EphB2 (residues 1-548) fused to Fc region of human IgG, R&D Systems
B2: Eph B1-Fc fusion protein: extracellular domain of rat EphB1 (residues 1-538) fused to Fc region of human IgG, R&D Systems (protein)
chain: MEETLMDTRTATAELGWTANPASGWEEVSGYDENLNTIRTYQVCNVFEPNQNNWLLTTFINRRGAHRIYTEMRFTVRDCSSLPNVPGSCKETFNLYYYETDSVIATKKSAFWSEAPYLKVDTIAADESFSQVDFGGRLMKVNTEVRSFGPLTRNGFYLAFQDYGACMSLLSVRVFFKKCPSIVQNFAVFPETMTGAESTSLVIARGTCIPNAEEVDVPIKLYCNGDGEWMVPIGRCTCKAGYEPENSVACKACPAGTFKASQEAEGCSHCPSNSRSPSEASPICTCRTGYYRADFDPPEVACTSVPSGPRNVISIVNETSIILEWHPPRETGGRDDVTYNIICKKCRADRRSCSRCDDNVEFVPRQLGLTECRVSISSLWAHTPYTFDIQAINGVSSKSPFPPQHVSVNITTNQAAPSTVPIMHQVSATMRSITLSWPQPEQPNGIILDYEIRYYEKEHNEFNSSMARSQTNTARIDGLRPGMVYVVQVRARTVAGYGKFSGKMCFQTLTDDDYKSELREQ
modifications: left off: small tags and cut ends; a dimerising Fc or GST
notes: extracellular domain of rat EphB1 (residues 1-538) fused to Fc region of human IgG, R&D Systems

Key:
MMP-2 = biological target: T1, MMP-2 (Homo sapiens, UniProt P08253); test: Cleavage of recombinant Eph receptor-Fc fusion proteins, SDS-PAGE; assay type: biochemical; conditions: 1.8 μM fusion protein, 280 nM MMP-2, 4 hours, 37° C.
T1 construct: the cDNA encoding the catalytic domain of MMP-2 was generated by PCR; made in house; host or cells: HEK 293 cells
T1 sequence (P08253 110-465 limits assumed): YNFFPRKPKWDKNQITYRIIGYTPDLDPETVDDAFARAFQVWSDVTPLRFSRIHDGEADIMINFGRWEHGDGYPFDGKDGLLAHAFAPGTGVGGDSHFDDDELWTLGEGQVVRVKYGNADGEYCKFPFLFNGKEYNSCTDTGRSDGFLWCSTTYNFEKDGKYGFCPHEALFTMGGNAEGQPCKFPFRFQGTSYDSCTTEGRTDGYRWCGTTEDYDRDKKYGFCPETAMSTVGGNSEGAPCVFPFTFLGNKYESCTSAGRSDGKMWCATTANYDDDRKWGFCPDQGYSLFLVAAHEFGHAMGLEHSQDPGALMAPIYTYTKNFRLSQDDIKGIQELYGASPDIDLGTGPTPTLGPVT
Procedure: (§1) Recombinant fusion proteins between EphB1, EphB2 and the Fc domain of IgG were purchased from R&D Systems Inc. In these constructs, the extracellular domain of rat EphB1 (amino acid residues 1-538) and mouse EphB2 (amino acid residues 1-548) are fused to the Fc region of human IgG via a short polypeptide linker. The fusion proteins (1.8 μM) were incubated for 4 hours at 37° C. with 280 nM of either MMP-2 or MMP-9. Following incubation, samples were resolved by 10% SDS-PAGE, and samples were visualized by Coomassie staining. The N-terminus of the cleaved Eph B1 was determined by automated Edman degradation of protein blotted to PVDF membranes.
(§2) The Eph B1 and Eph B2 fusion proteins were incubated with equimolar amounts (280 nM) of MMP-2 and MMP-9 for four hours. The extent of hydrolysis was gauged by SDS-PAGE (FIG. 3). […] The extent of cleavage by MMP-9 was far lower (lane 3). […] The site of hydrolysis within Eph B1 was determined by sequencing the N-terminus of one of the released fragments. […] This is one of the predicted cleavage sites in EphB1. These findings illustrate that motifs found to be selective for MMP-2 by substrate phage display, can act as selective substrates within the context of whole proteins. This experiment also illustrates that the three dimensional conformation of the putative cleavage site will also control the extent of hydrolysis.

MMP-9 = biological target: T2, MMP-9 (Homo sapiens, UniProt P14780); test: as above; assay type: biochemical; conditions: 1.8 μM fusion protein, 280 nM MMP-9, 4 hours, 37° C.
T2 construct: a recombinant form of the catalytic domain of MMP-9 expressed in HEK 293 cells; made in house; host or cells: HEK 293 cells
T2 sequence (P14780 94-444 limits assumed): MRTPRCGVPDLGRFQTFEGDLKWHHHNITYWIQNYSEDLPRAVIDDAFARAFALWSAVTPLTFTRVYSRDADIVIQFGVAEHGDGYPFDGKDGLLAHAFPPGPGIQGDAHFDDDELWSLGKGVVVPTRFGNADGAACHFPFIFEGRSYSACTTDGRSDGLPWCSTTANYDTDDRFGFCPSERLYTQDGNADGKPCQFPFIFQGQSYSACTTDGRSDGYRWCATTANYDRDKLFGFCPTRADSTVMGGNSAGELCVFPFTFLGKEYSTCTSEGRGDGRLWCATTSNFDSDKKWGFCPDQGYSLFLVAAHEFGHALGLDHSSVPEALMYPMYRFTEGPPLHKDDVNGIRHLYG
Procedure: as §1, §2

Molecule | extent of hydrolysis by MMP-2 (SDS-PAGE) (MMP-2) | extent of hydrolysis by MMP-9 (SDS-PAGE) (MMP-9)
B1 | Neither protease cleaved | Neither protease cleaved
B2 | almost quantitatively cleaved | far lower
